Experiments:
[1] = molecular target: T1, F-actin (chicken skeletal muscle actin, polymerized) (chicken, UniProt P68139 1-377); experiment: cell-based or functional assay
[2] = molecular target: T1, F-actin (chicken skeletal muscle actin, …); experiment: co-sedimentation; high-speed co-sedimentation, 300 000 g, 25 °C, 30 min; plastin 5 µmol·L^-1, F-actin varied 1-50 µmol·L^-1; actin polymerized in 2 mmol·L^-1 MgCl2, 30 mmol·L^-1 KCl, 10 mmol·L^-1 HEPES pH 7.0; incubated overnight at 4 °C then 1 h at 25 °C; SDS-PAGE densitometry, fit to a binding isotherm; details: both partners purified

Row | F-actin bundling, low-speed (17 000 g) co-sedimentation, [PLS3]50%, Ca^2+ [1] | F-actin bundling, low-speed (17 000 g) co-sedimentation, [PLS3]50%, EGTA [1] | Kd [2] | Binder
1 | 0.03 µmol/L | 0.1 µmol/L | 2.56 µM | plastin 3 (PLS3) E249_A250insIMGHSHSGSCLL (natural protein, Patient mutation; also called E249_A250insI-L; Ca2+-insensitive mutant; source: E. coli BL21-CodonPlus(DE3), purified (TALON cobalt resin)) MDEMATTQISKDELDELKEAFAKVDLNSNGFICDYELHELFKEANMPLPGYKVREIIQKLMLDGDRNKDGKISFDEFVYIFQEVKSSDIAKTFRKAINRKEGICALGGTSELSSEGTQHSYSEEEKYAFVNWINKALENDPDCRHVIPMNPNTDDLFKAVGDGIVLCKMINLSVPDTIDERAINKKKLTPFIIQENLNLALNSASAIGCHVVNIGAEDLRAGKPHLVLGLLWQIIKIGLFADIELSRNEIMGHSHSGSCLLALAALLRDGETLEELMKLSPEELLLRWANFHLENSGWQKINNFSADIKDSKAYFHLLNQIAPKGQKEGEPRIDINMSGFNETDDLKRAESMLQQADKLGCRQFVTPADVVSGNPKLNLAFVANLFNKYPALTKPENQDIDWTLLEGETREERTFRNWMNSLGVNPHVNHLYADLQDALVILQLYERIKVPVDWSKVNKPPYPKLGANMKKLENCNYAVELGKHPAKFSLVGIGGQDLNDGNQTLTLALVWQLMRRYTLNVLEDLGDGQKANDDIIVNWVNRTLSEAGKSTSIQSFKDKTISSSLAVVDLIDAIQPGCINYDLVKSGNLTEDDKHNNAKYAVSMARRIGARVYALPEDLVEVKPKMVMTVFACLMGRGMKRV
2 | 2.09 µmol/L | 0.53 µmol/L | 3.77 µM | plastin 3 (PLS3) A253_L254insN (natural protein, plastin 3 (PLS3), human, osteogenesis imperfecta-linked single-residue insertion A253_L254insN in the CH1-CH2 connecting loop of ABD1; Patient mutation; also called Ca2+-hypersensitive mutant; source: E. coli BL21-CodonPlus(DE3), purified (TALON cobalt resin)) MDEMATTQISKDELDELKEAFAKVDLNSNGFICDYELHELFKEANMPLPGYKVREIIQKLMLDGDRNKDGKISFDEFVYIFQEVKSSDIAKTFRKAINRKEGICALGGTSELSSEGTQHSYSEEEKYAFVNWINKALENDPDCRHVIPMNPNTDDLFKAVGDGIVLCKMINLSVPDTIDERAINKKKLTPFIIQENLNLALNSASAIGCHVVNIGAEDLRAGKPHLVLGLLWQIIKIGLFADIELSRNEALAANLLRDGETLEELMKLSPEELLLRWANFHLENSGWQKINNFSADIKDSKAYFHLLNQIAPKGQKEGEPRIDINMSGFNETDDLKRAESMLQQADKLGCRQFVTPADVVSGNPKLNLAFVANLFNKYPALTKPENQDIDWTLLEGETREERTFRNWMNSLGVNPHVNHLYADLQDALVILQLYERIKVPVDWSKVNKPPYPKLGANMKKLENCNYAVELGKHPAKFSLVGIGGQDLNDGNQTLTLALVWQLMRRYTLNVLEDLGDGQKANDDIIVNWVNRTLSEAGKSTSIQSFKDKTISSSLAVVDLIDAIQPGCINYDLVKSGNLTEDDKHNNAKYAVSMARRIGARVYALPEDLVEVKPKMVMTVFACLMGRGMKRV

Continued, binder first:

Row | Binder | F-actin bundling, low-speed (17 000 g) co-sedimentation, [PLS3]50%, Ca^2+ [1] | F-actin bundling, low-speed (17 000 g) co-sedimentation, [PLS3]50%, EGTA [1] | Kd [2]
3 | plastin 3 (PLS3), wild type (natural protein, plastin 3 (PLS3, T-plastin), human; recombinant wild type, parent of the OI mutants; Modified pColdI vector with a TEV protease site after the 6xHis tag; also called T-plastin; WT PLS3; source: E. coli BL21-CodonPlus(DE3), purified (TALON cobalt resin)) MDEMATTQISKDELDELKEAFAKVDLNSNGFICDYELHELFKEANMPLPGYKVREIIQKLMLDGDRNKDGKISFDEFVYIFQEVKSSDIAKTFRKAINRKEGICALGGTSELSSEGTQHSYSEEEKYAFVNWINKALENDPDCRHVIPMNPNTDDLFKAVGDGIVLCKMINLSVPDTIDERAINKKKLTPFIIQENLNLALNSASAIGCHVVNIGAEDLRAGKPHLVLGLLWQIIKIGLFADIELSRNEALAALLRDGETLEELMKLSPEELLLRWANFHLENSGWQKINNFSADIKDSKAYFHLLNQIAPKGQKEGEPRIDINMSGFNETDDLKRAESMLQQADKLGCRQFVTPADVVSGNPKLNLAFVANLFNKYPALTKPENQDIDWTLLEGETREERTFRNWMNSLGVNPHVNHLYADLQDALVILQLYERIKVPVDWSKVNKPPYPKLGANMKKLENCNYAVELGKHPAKFSLVGIGGQDLNDGNQTLTLALVWQLMRRYTLNVLEDLGDGQKANDDIIVNWVNRTLSEAGKSTSIQSFKDKTISSSLAVVDLIDAIQPGCINYDLVKSGNLTEDDKHNNAKYAVSMARRIGARVYALPEDLVEVKPKMVMTVFACLMGRGMKRV | 2.97 µmol/L | 0.49 µmol/L | 7.41 µM
4 | plastin 3 (PLS3) A368D (natural protein, plastin 3 (PLS3), human, osteogenesis imperfecta-linked missense mutation A368D in CH2 of ABD1; Patient mutation; also called Ca2+-insensitive mutant; Ca2+-hyposensitive mutant; source: E. coli BL21-CodonPlus(DE3), purified (TALON cobalt resin)) MDEMATTQISKDELDELKEAFAKVDLNSNGFICDYELHELFKEANMPLPGYKVREIIQKLMLDGDRNKDGKISFDEFVYIFQEVKSSDIAKTFRKAINRKEGICALGGTSELSSEGTQHSYSEEEKYAFVNWINKALENDPDCRHVIPMNPNTDDLFKAVGDGIVLCKMINLSVPDTIDERAINKKKLTPFIIQENLNLALNSASAIGCHVVNIGAEDLRAGKPHLVLGLLWQIIKIGLFADIELSRNEALAALLRDGETLEELMKLSPEELLLRWANFHLENSGWQKINNFSADIKDSKAYFHLLNQIAPKGQKEGEPRIDINMSGFNETDDLKRAESMLQQADKLGCRQFVTPADVVSGNPKLNLDFVANLFNKYPALTKPENQDIDWTLLEGETREERTFRNWMNSLGVNPHVNHLYADLQDALVILQLYERIKVPVDWSKVNKPPYPKLGANMKKLENCNYAVELGKHPAKFSLVGIGGQDLNDGNQTLTLALVWQLMRRYTLNVLEDLGDGQKANDDIIVNWVNRTLSEAGKSTSIQSFKDKTISSSLAVVDLIDAIQPGCINYDLVKSGNLTEDDKHNNAKYAVSMARRIGARVYALPEDLVEVKPKMVMTVFACLMGRGMKRV | 0.59 µmol/L | 0.47 µmol/L | 4.22 µM
5 | plastin 3 (PLS3) L478P (natural protein, plastin 3 (PLS3), human, osteogenesis imperfecta-linked missense mutation L478P in CH3 of ABD2; Patient mutation; also called bundling-deficient mutant; source: E. coli BL21-CodonPlus(DE3), purified (TALON cobalt resin)) MDEMATTQISKDELDELKEAFAKVDLNSNGFICDYELHELFKEANMPLPGYKVREIIQKLMLDGDRNKDGKISFDEFVYIFQEVKSSDIAKTFRKAINRKEGICALGGTSELSSEGTQHSYSEEEKYAFVNWINKALENDPDCRHVIPMNPNTDDLFKAVGDGIVLCKMINLSVPDTIDERAINKKKLTPFIIQENLNLALNSASAIGCHVVNIGAEDLRAGKPHLVLGLLWQIIKIGLFADIELSRNEALAALLRDGETLEELMKLSPEELLLRWANFHLENSGWQKINNFSADIKDSKAYFHLLNQIAPKGQKEGEPRIDINMSGFNETDDLKRAESMLQQADKLGCRQFVTPADVVSGNPKLNLAFVANLFNKYPALTKPENQDIDWTLLEGETREERTFRNWMNSLGVNPHVNHLYADLQDALVILQLYERIKVPVDWSKVNKPPYPKLGANMKKLENCNYAVELGKHPAKFSPVGIGGQDLNDGNQTLTLALVWQLMRRYTLNVLEDLGDGQKANDDIIVNWVNRTLSEAGKSTSIQSFKDKTISSSLAVVDLIDAIQPGCINYDLVKSGNLTEDDKHNNAKYAVSMARRIGARVYALPEDLVEVKPKMVMTVFACLMGRGMKRV | – | – | 2.16 µM
6 | plastin 3 (PLS3) N446S (natural protein, plastin 3 (PLS3), human, osteogenesis imperfecta-linked missense mutation N446S in a proline-rich loop of CH3; Patient mutation; also called Ca2+-hypersensitive mutant; source: E. coli BL21-CodonPlus(DE3), purified (TALON cobalt resin)) MDEMATTQISKDELDELKEAFAKVDLNSNGFICDYELHELFKEANMPLPGYKVREIIQKLMLDGDRNKDGKISFDEFVYIFQEVKSSDIAKTFRKAINRKEGICALGGTSELSSEGTQHSYSEEEKYAFVNWINKALENDPDCRHVIPMNPNTDDLFKAVGDGIVLCKMINLSVPDTIDERAINKKKLTPFIIQENLNLALNSASAIGCHVVNIGAEDLRAGKPHLVLGLLWQIIKIGLFADIELSRNEALAALLRDGETLEELMKLSPEELLLRWANFHLENSGWQKINNFSADIKDSKAYFHLLNQIAPKGQKEGEPRIDINMSGFNETDDLKRAESMLQQADKLGCRQFVTPADVVSGNPKLNLAFVANLFNKYPALTKPENQDIDWTLLEGETREERTFRNWMNSLGVNPHVNHLYADLQDALVILQLYERIKVPVDWSKVSKPPYPKLGANMKKLENCNYAVELGKHPAKFSLVGIGGQDLNDGNQTLTLALVWQLMRRYTLNVLEDLGDGQKANDDIIVNWVNRTLSEAGKSTSIQSFKDKTISSSLAVVDLIDAIQPGCINYDLVKSGNLTEDDKHNNAKYAVSMARRIGARVYALPEDLVEVKPKMVMTVFACLMGRGMKRV | 6.36 µmol/L | 0.58 µmol/L | 4.79 µM
